According to publication PMC10080908:
Several values for one entry are separate records, joined by “and”; a condition that tells them apart may be missing. Equal values may be shown once.

What was measured:
UBXN7-WT (human) [1] = target: UBXN7-WT (human) (UniProt O94888); test: ITC; VP-ITC; 200 µM RNF111 RING domain injected (20 x 10 µl) into 10 µM UBXN7-WT or UBXN7-UAS, or into 15 µM UBXN7-∆UAS, in the cell; 25 °C; phosphate-buffered saline pH 7.4, 1 mM TCEP; single binding site model
[2] = target: UBXN7-UAS recombinant protein (human) (UniProt O94888); test: ITC; VP-ITC, 25 °C, PBS pH 7.4 with 1 mM TCEP; 200 µM RNF111 RING domain injected (20 x 10 µl) into 10 µM UBXN7-WT or UBXN7-UAS or 15 µM UBXN7-∆UAS; single binding site model
UBXN7-WT (human) [3] = target: UBXN7-WT (human) (UniProt O94888); test: as above

UBXN7-WT (human), sequence (O94888 whole entry, the tested form may be a part): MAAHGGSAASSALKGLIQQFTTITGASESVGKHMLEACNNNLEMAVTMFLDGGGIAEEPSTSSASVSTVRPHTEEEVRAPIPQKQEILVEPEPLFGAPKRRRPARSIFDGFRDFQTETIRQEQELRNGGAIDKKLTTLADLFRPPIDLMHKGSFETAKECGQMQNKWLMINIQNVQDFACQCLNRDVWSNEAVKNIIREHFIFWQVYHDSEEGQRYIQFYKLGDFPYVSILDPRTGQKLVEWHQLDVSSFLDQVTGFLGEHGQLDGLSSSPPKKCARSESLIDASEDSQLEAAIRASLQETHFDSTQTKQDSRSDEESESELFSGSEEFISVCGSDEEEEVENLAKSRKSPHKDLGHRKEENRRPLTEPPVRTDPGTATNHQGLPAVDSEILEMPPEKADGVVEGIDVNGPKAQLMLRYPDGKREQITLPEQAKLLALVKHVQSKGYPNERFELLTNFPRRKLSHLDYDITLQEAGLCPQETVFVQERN
UBXN7-UAS recombinant protein (human), sequence (O94888 94-284): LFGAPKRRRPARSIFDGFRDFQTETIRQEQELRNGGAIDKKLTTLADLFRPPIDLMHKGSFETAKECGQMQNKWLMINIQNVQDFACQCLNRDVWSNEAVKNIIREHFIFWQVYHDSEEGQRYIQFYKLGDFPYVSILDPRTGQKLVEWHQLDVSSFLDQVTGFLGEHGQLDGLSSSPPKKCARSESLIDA

Substance | Kd (UBXN7-WT (human) [1]) | stoichiometry N (UBXN7-WT (human) [1]) | Kd (UBXN7-WT (human) [1]; mean) | stoichiometry N (UBXN7-WT (human) [1]; mean) | Kd [2] | stoichiometry N [2] | Kd (UBXN7-WT (human) [3]) | stoichiometry N (UBXN7-WT (human) [3])
RNF111 RING domain (RNF111-RING, aa 895 to Cter) (domain or fragment) | 2490 nM and 2260 nM | 0.928 and 1.11 | 2370 nM | 1.02 |  |  |  | 
RNF111-RING recombinant protein (domain or fragment) |  |  |  |  | 900 nM | 1 | 2300 nM | 1
